The results in this text go back to the RNAGym collection of RNA variant scans (doi:10.1073/pnas.2313332121).

The chains are these.
B1: TPR t1 (parent)
chain: GACCAAUCUGCCCUCAGAGCUCGAGAACAUCUUCGGAUGCAGAGGAGGCAGGCUUCGGUGGCGCGAUAGCGCCAACGUCCUCAACCUCCAAUGCAUCCCACCACAUGAUGAUGCCUGAAGAGCCUUGGUUUUUUG

In this data set the parent is B1. Briefly: polymerase ribozyme fitness, log enrichment relative to wild type (log ratio); higher = more active; in vitro selection for triplet polymerase activity. The method, boiled down: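 Mutant libraries were PCR-built and transcribed for each subunit of a heterodimeric triplet polymerase ribozyme and selected for one round in triplicate at −7 °C, frozen, before gel excision of extended constructs and streptavidin-bead capture. Input and output libraries were Illumina-sequenced, keeping genotypes with ≥10 input reads and ≥1 read per output. Fitness is a logarithmic ratio of genotype to wild-type enrichment, in base 2, using inverse-variance-weighted replicate averages.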
As to A16U G69U A121C, the “polymerase ribozyme fitness (log ratio)” value was found to be 1.22.
Under G45U G60C U125G U133A stands -1.59; under A46U C62U, -1.12.
To C11U U55C A121G belongs 1.39; to G17C U133G G135U, -3.94; to C49U C56U, -0.758.
For U78G C98U, the “polymerase ribozyme fitness (log ratio)” value was -0.646.
To C99A U112A G120A belongs -5.93; to A18C G25U A41G C53U C124A, -6.92.
To C56U C89U belongs -0.281.
To G61U C86A A103C belongs -5.4.
Consider U7G G110C C124A, for which the “polymerase ribozyme fitness (log ratio)” value was -4.31.
Under C56G A111G stands 0.245; under G52A G57C, -0.388.
Under C22A C49U stands -6.04.
Under C15U C62A C86U A111C U129G stands -4.97; under C11A C53U C56A G63A C76G, -3.79; under A50C C72G G127A, -2.8.
In the case of G61A U109A, the “polymerase ribozyme fitness (log ratio)” value was -5.19.
To C85U C98U belongs -1.57.
Under C82G G120U stands -0.592.
With G45U U55C, the “polymerase ribozyme fitness (log ratio)” value is -1.88.
Regarding C70U C76U U106C U133G, the “polymerase ribozyme fitness (log ratio)” value is -1.64.
Under C40A A90G C123U stands 0.623; under U9C C20A G69C C101A, -6.63; under A29U A83U C86A C114A A118U, -3.87.
Under C53G C104U A111G stands 0.815.
Under G42U U54G C76U A111G stands -2.36; under U112G U125C, 0.47; under A50C G71A C79G C104A, -5.88.
With G113U U133C, the “polymerase ribozyme fitness (log ratio)” value is -2.64.
Under A24G C72U C88A G93U stands -5.29.
To A6C C53G G57A C73A C79G G113C belongs -4.89; to C11G C70G C123U, -0.504.
To C88U U116C G120C belongs -0.613.
In the case of C22A G52A, the “polymerase ribozyme fitness (log ratio)” value is -4.45.
Under C12A U55A G122A U126A stands -5.02.
Under G48U G69U stands -0.529; under G36U C102A C123U, -2.11; under C53G G107U C123G, -2.73.
To G110C G117U belongs -5.43; to C73U A105C A119U G128A, -3.98.
For the variant G39A G63C C72A, the “polymerase ribozyme fitness (log ratio)” value is -4.54.
On to U7C G47A G48A A90C U112C, for which the “polymerase ribozyme fitness (log ratio)” value is -1.65.
To C15A C62A C76U U96G C115U belongs -6.47.
To U7C A43U C72G A90G C124A U125G U133C belongs -0.0724.
Under C40A U106A G113A stands -3.55; under C99G G120A, -7.03.
Consider C53G U126A, for which the “polymerase ribozyme fitness (log ratio)” value was -2.29.
To G61A C94U U112A belongs 1.31; to C70G C89U, -2.75; to C31A G69U, -2.98.
Under U59C G127C stands -1.09; under A6U C102A G128A, -4.03; under C102A U125G, -2.8.
To C64U A66U C124A belongs 1.13; to C4G C8G C72U A121G, 1.81.
Regarding A27U G39C, the “polymerase ribozyme fitness (log ratio)” value is -3.26.
As for G69U G110U, the “polymerase ribozyme fitness (log ratio)” value turned out to be 0.852.
Regarding C11A U55G C80U C104U G113A, the “polymerase ribozyme fitness (log ratio)” value is -4.77.
To G69A G128C belongs -5.29.
To C11A G69U C79U C102U belongs -1.74.
Under A74C U133A stands -0.0752; under C34G C73A, -5.35.
Consider G47A U54C G77A C82A G110A C123A, for which the “polymerase ribozyme fitness (log ratio)” value was -3.8.
Under A119U C123A stands -0.124; under C3A C102A U106C G120U C124U, -2.57.
Under G60C A111U G128U U133A stands -6.08; under C79A A83G C115G C123A U131G, -4.48; under C3U A16U G71A, -2.38.
Under G39A C72A A91U C94A stands -2.84.
Consider C13A U96A, for which the “polymerase ribozyme fitness (log ratio)” value was -2.64.
In the case of G48C G61C, the “polymerase ribozyme fitness (log ratio)” value is -2.06.
Under G45C G71A C73U C86A U109A stands -6.99.
To C70U U78A A95U U112G belongs -2.17; to C49G G58C, -3.36; to C56U A111C, -0.414.
Regarding G47U A50U U59C C73A U78A, the “polymerase ribozyme fitness (log ratio)” value is -2.43.
To C40G G77A C97U belongs -4.09; to A16U C102A, -3.35; to C8G C34G C88U U112C G113A, -6.08.
To G93C A100C belongs -2.34; to G47C C70U G93A C124A G127U G135U, -3.66; to G36U C72G, -1.68.
On to C8A G61U C98A, for which the “polymerase ribozyme fitness (log ratio)” value was -3.46.
Under A2C C4A G120A stands 0.58; under C34A C85A G113A, -4.78; under C11U A50U C70U G113A, -2.63.
Under C49A C62G stands -2.22; under U9A C85A C97U G117C C124A, -3.01.
Regarding C11A G48U A66U C72A U96G U112C, the “polymerase ribozyme fitness (log ratio)” value is -2.05.
Under G57A stands -0.653; under G47C C53U C70A C124A, -1.6; under C4A G61C A84U, -4.45.
Under G61U A100C U106A U112A stands 1.26; under G63A G122A, -1.62.
Under A90G U112G stands 1.3.
With C31U G61U A91C, the “polymerase ribozyme fitness (log ratio)” value was -5.51.
To C56A G69A belongs -3.3.
Under U32C C40A stands -0.464; under G63C U92A, -4.04; under A18U G69U, -0.112.
Take G10A U92A: the “polymerase ribozyme fitness (log ratio)” value is -2.86.
Under C8A A41U G69U C86A stands -0.0176; under A50C G60U C97A, -5.38; under A6U C115U A119U U130G, -1.27.
To G17A U55G C123A belongs -2.36; to C40A G63U C104A G120A U130G, -5.07.
For C64A U78G, the “polymerase ribozyme fitness (log ratio)” value was -6.68.
To A46U G93U belongs -2.06; to G58C A118U G127C, -1.14.
To U9G G69C A105U U112G belongs -4.11.
Under G36U U106A G127C stands -1.83.
As for A46U G117C, the “polymerase ribozyme fitness (log ratio)” value is -1.89.
Under A5U C102A stands -2.01; under U9G G60U C62U, -1.11; under G71C U112C, -0.487.
To A66U belongs -0.954.
To C11G U14A A26C C80A C89U C124U belongs -6.54.
For C4U G135U, the “polymerase ribozyme fitness (log ratio)” value is -1.43.
To U9G U55C C89U C94A U126A belongs -1.95; to A6U G10C C12A U87A, -0.928; to C40U U92C, -1.86.
Under C85G A111C stands -3.12; under C40A C72A U81A A119U, -3.46.
To C56G G57U G63U belongs -3.14; to A5G G57U A100U, -1.5.
With C8U C62U U87A A121U, the “polymerase ribozyme fitness (log ratio)” value was found to be 1.89.
Under C31G U33A G48U C49U C72G A108U G120U stands -8.14; under A41C U131G, -0.589.
To C72A G135C belongs -0.133.
For the variant U96A C123G, the “polymerase ribozyme fitness (log ratio)” value came to 0.707.
Under U59G C89A A121G stands 0.508; under C56G A121U, 1.73.
As to G48A G57A G60U G120A, the “polymerase ribozyme fitness (log ratio)” value was -0.327.
For the variant C8U C13A A37C G61U U87G C102U, the “polymerase ribozyme fitness (log ratio)” value was -1.74.
C34A G61C A91C A121U U134C: the “polymerase ribozyme fitness (log ratio)” value is -5.66.
To G44A G63A C80A G110U C115G belongs -7.37; to C80A G117A, -4.27; to A2U U9G G47U C88U G113A, -4.58.
In the case of C13U A43G G60A, the “polymerase ribozyme fitness (log ratio)” value is -1.39.
As for G36C G44A G71A A75G C89A, the “polymerase ribozyme fitness (log ratio)” value is -3.61.
G57C G69C U131A: the “polymerase ribozyme fitness (log ratio)” value is -0.151.
As for C3A C49A A75U C123U, the “polymerase ribozyme fitness (log ratio)” value was found to be 0.0976.
Under C13A G122A stands -2.07; under G48A C72U, -0.785; under C8U G57U, -0.029.
To C13A A18U C53U belongs -3.95; to C86U C124A, 1.32; to A6C C13A A37U C82U, -2.7.
As for C11A U14A A18U U55C, the “polymerase ribozyme fitness (log ratio)” value was -4.98.
Under A2U C102U G113A U129A stands -2.88.
Under G63C C102A stands -2.59; under G57A G69C, -1.82; under C28U G71C U87G, -3.85.
To A46G C56A A100C belongs -1.41; to C20G A37U C62G C70U U112A, -6.02.
On to C12U A50U, for which the “polymerase ribozyme fitness (log ratio)” value is -1.64.
Regarding G10A U33G, the “polymerase ribozyme fitness (log ratio)” value was -4.61.
Under C86U A111G C123A G127A stands -2.33.
Under G36U G60U A111U stands -2.87; under A6G U54C A66G C80U, -2.2.
To G60A C79U U130A belongs 0.0156; to C3U C13U G57U C79U A100C, -0.594.
As for U9C U67C C82G U109C, the “polymerase ribozyme fitness (log ratio)” value is -6.64.
Consider G48A G63A U133G, for which the “polymerase ribozyme fitness (log ratio)” value is -1.13.
Under C20G U38G C76G stands -5.6.
